# Source: patent publication US11541126B1, “Anti-ASGR1 antibody TLR8 agonist comprising conjugates and uses thereof” (Silverback Therapeutics, Inc., priority 2020, dated 2023)
# Target: T1, HepG2 cells (which express ASGR1) (Homo sapiens, UniProt P07306)
# T1 construct: endogenous in cells; host or cells: HepG2
# T1 sequence (P07306 1-291): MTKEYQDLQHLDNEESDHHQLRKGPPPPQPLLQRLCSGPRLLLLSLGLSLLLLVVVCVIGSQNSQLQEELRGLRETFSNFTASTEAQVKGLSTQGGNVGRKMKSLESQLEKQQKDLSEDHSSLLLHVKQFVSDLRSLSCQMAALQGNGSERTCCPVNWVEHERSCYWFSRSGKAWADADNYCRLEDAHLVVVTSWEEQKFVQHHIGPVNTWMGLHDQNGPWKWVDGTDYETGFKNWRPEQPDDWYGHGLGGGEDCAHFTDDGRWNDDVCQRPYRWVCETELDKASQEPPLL
# Assay: Guava HepG2 cell binding screen of humanized anti-ASGR1 clones
# Set-up: unit not given here
# Settings: humanized G2D clones (Table 5); two numbers per cell, not explained
# Method: Hybridomas producing monoclonal antibodies (mAbs) specific for human ASGR1 were prepared from Balb/C mice immunized with ASGR1-AviHis at a service provider using their propriety protocol. Antibody heavy and light chain sequences were obtained, amplified, and cloned. Clone supernatants containing the expressed mAbs were screened for binding to a human ASGR1-IgG1Fc fusion protein, and those with a positive signal as measured by enzyme linked immunosorbent assay (ELISA) were screened for cell binding on HepG2 cells (which express ASGR1).
row,Molecule,Guava HepG2 Screen
1,"hzG2D-4: humanized G2D clone; ""G2D VL region ... of clones 1-16, 19-21, 26-29, 31, and 33 ... grafted into the human germline sequence VKI-L1 with JK4"" (antibody, V domains shown, Synthetic sequence hzG2.39D VH R66K, V67A, V109L; Synthetic sequence hzG2D VLa) VH: QVQLVQSGAEVKKPGASVKVSCKASGYTFTGYYMHWVRQAPGQRLEWMGRINPNNGATNYNQNFKDKATITRDTSASTAYMELSSLRSEDTAVYYCARVNFYYWGQGTTLTVSS VL: DIQMTQSPSSLSASVGDRVTITCKASQVINSYLSWFQQKPGKAPKSLIYRANTLVDGVPSRFSGSGSGTDFTLTISSLQPEDFATYYCLQYAEFPYTFGGGTKVEIK",55/22
2,"hzG2D-7: humanized G2D clone; ""G2D VL region ... of clones 1-16, 19-21, 26-29, 31, and 33 ... grafted into the human germline sequence VKI-L1 with JK4"" (antibody, V domains shown, Synthetic sequence hzG2.2D VH T28S, R66K, V67A, V109L; Synthetic sequence hzG2D VLa) VH: QVQLVQSGAEVKKPGASVKVSCKASGYSFTGYYMHWVRQAPGQRLEWMGRINPNNGATNYNQNFKDKATITRDTSASTAYMELSSLRSEDTAVYYCARVNFYYWGQGTTLTVSS VL: DIQMTQSPSSLSASVGDRVTITCKASQVINSYLSWFQQKPGKAPKSLIYRANTLVDGVPSRFSGSGSGTDFTLTISSLQPEDFATYYCLQYAEFPYTFGGGTKVEIK",46/22
3,"hzG2D-13: humanized G2D clone; ""G2D VL region ... of clones 1-16, 19-21, 26-29, 31, and 33 ... grafted into the human germline sequence VKI-L1 with JK4"" (antibody, V domains shown, Synthetic sequence hzG2.7D VH T28S, T68S, I69L, R71V, A93T, R94S, V109L; Synthetic sequence hzG2D VLa) VH: QVQLVQSGAEVKKPGASVKVSCKASGYSFTGYYMHWVRQAPGQRLEWMGRINPNNGATNYNQNFKDRVSLTVDTSASTAYMELSSLRSEDTAVYYCTSVNFYYWGQGTTLTVSS VL: DIQMTQSPSSLSASVGDRVTITCKASQVINSYLSWFQQKPGKAPKSLIYRANTLVDGVPSRFSGSGSGTDFTLTISSLQPEDFATYYCLQYAEFPYTFGGGTKVEIK",140/83
4,"hzG2D-9: humanized G2D clone; ""G2D VL region ... of clones 1-16, 19-21, 26-29, 31, and 33 ... grafted into the human germline sequence VKI-L1 with JK4"" (antibody, V domains shown, Synthetic sequence hzG2.40D VH R66K, V67A, A93T, R94S, V109L; Synthetic sequence hzG2D VLa) VH: QVQLVQSGAEVKKPGASVKVSCKASGYTFTGYYMHWVRQAPGQRLEWMGRINPNNGATNYNQNFKDKATITRDTSASTAYMELSSLRSEDTAVYYCTSVNFYYWGQGTTLTVSS VL: DIQMTQSPSSLSASVGDRVTITCKASQVINSYLSWFQQKPGKAPKSLIYRANTLVDGVPSRFSGSGSGTDFTLTISSLQPEDFATYYCLQYAEFPYTFGGGTKVEIK",155/117
5,"hzG2D-8: humanized G2D clone; ""G2D VL region ... of clones 1-16, 19-21, 26-29, 31, and 33 ... grafted into the human germline sequence VKI-L1 with JK4"" (antibody, V domains shown, Synthetic sequence hzG2.6D VH T28S, T68S, I69L, R71V, V109L; Synthetic sequence hzG2D VLa) VH: QVQLVQSGAEVKKPGASVKVSCKASGYSFTGYYMHWVRQAPGQRLEWMGRINPNNGATNYNQNFKDRVSLTVDTSASTAYMELSSLRSEDTAVYYCARVNFYYWGQGTTLTVSS VL: DIQMTQSPSSLSASVGDRVTITCKASQVINSYLSWFQQKPGKAPKSLIYRANTLVDGVPSRFSGSGSGTDFTLTISSLQPEDFATYYCLQYAEFPYTFGGGTKVEIK",31/21
6,"hzG2D-5: humanized G2D clone; ""G2D VL region ... of clones 1-16, 19-21, 26-29, 31, and 33 ... grafted into the human germline sequence VKI-L1 with JK4"" (antibody, V domains shown, Synthetic sequence hzG2.8D VH T28S, A93T, R94S, V109L; Synthetic sequence hzG2D VLa) VH: QVQLVQSGAEVKKPGASVKVSCKASGYSFTGYYMHWVRQAPGQRLEWMGRINPNNGATNYNQNFKDRVTITRDTSASTAYMELSSLRSEDTAVYYCTSVNFYYWGQGTTLTVSS VL: DIQMTQSPSSLSASVGDRVTITCKASQVINSYLSWFQQKPGKAPKSLIYRANTLVDGVPSRFSGSGSGTDFTLTISSLQPEDFATYYCLQYAEFPYTFGGGTKVEIK",91/55
7,"hzG2D-14: humanized G2D clone; ""G2D VL region ... of clones 1-16, 19-21, 26-29, 31, and 33 ... grafted into the human germline sequence VKI-L1 with JK4"" (antibody, V domains shown, Synthetic sequence hzG2.4D VH T28S, R66K, V67A, T68S, I69L, R71V, V109L; Synthetic sequence hzG2D VLa) VH: QVQLVQSGAEVKKPGASVKVSCKASGYSFTGYYMHWVRQAPGQRLEWMGRINPNNGATNYNQNFKDKASLTVDTSASTAYMELSSLRSEDTAVYYCARVNFYYWGQGTTLTVSS VL: DIQMTQSPSSLSASVGDRVTITCKASQVINSYLSWFQQKPGKAPKSLIYRANTLVDGVPSRFSGSGSGTDFTLTISSLQPEDFATYYCLQYAEFPYTFGGGTKVEIK",37/16
8,"hzG2D-15: humanized G2D clone; ""G2D VL region ... of clones 1-16, 19-21, 26-29, 31, and 33 ... grafted into the human germline sequence VKI-L1 with JK4"" (antibody, V domains shown, Synthetic sequence hzG2.42D VH R66K, V67A, T68S, I69L, R71V, A93T, R94S, V109L; Synthetic sequence hzG2D VLa) VH: QVQLVQSGAEVKKPGASVKVSCKASGYTFTGYYMHWVRQAPGQRLEWMGRINPNNGATNYNQNFKDKASLTVDTSASTAYMELSSLRSEDTAVYYCTSVNFYYWGQGTTLTVSS VL: DIQMTQSPSSLSASVGDRVTITCKASQVINSYLSWFQQKPGKAPKSLIYRANTLVDGVPSRFSGSGSGTDFTLTISSLQPEDFATYYCLQYAEFPYTFGGGTKVEIK",172/119
9,"hzG2D-10: humanized G2D clone; ""G2D VL region ... of clones 1-16, 19-21, 26-29, 31, and 33 ... grafted into the human germline sequence VKI-L1 with JK4"" (antibody, V domains shown, Synthetic sequence hzG2.44D VH T68S, I69L, R71V, A93T, R94S, V109L; Synthetic sequence hzG2D VLa) VH: QVQLVQSGAEVKKPGASVKVSCKASGYTFTGYYMHWVRQAPGQRLEWMGRINPNNGATNYNQNFKDRVSLTVDTSASTAYMELSSLRSEDTAVYYCTSVNFYYWGQGTTLTVSS VL: DIQMTQSPSSLSASVGDRVTITCKASQVINSYLSWFQQKPGKAPKSLIYRANTLVDGVPSRFSGSGSGTDFTLTISSLQPEDFATYYCLQYAEFPYTFGGGTKVEIK",149/63
10,"hzG2D-6: humanized G2D clone; ""G2D VL region ... of clones 1-16, 19-21, 26-29, 31, and 33 ... grafted into the human germline sequence VKI-L1 with JK4"" (antibody, V domains shown, Synthetic sequence hzG2.43D VH T68S, I69L, R71V, V109L; Synthetic sequence hzG2D VLa) VH: QVQLVQSGAEVKKPGASVKVSCKASGYTFTGYYMHWVRQAPGQRLEWMGRINPNNGATNYNQNFKDRVSLTVDTSASTAYMELSSLRSEDTAVYYCARVNFYYWGQGTTLTVSS VL: DIQMTQSPSSLSASVGDRVTITCKASQVINSYLSWFQQKPGKAPKSLIYRANTLVDGVPSRFSGSGSGTDFTLTISSLQPEDFATYYCLQYAEFPYTFGGGTKVEIK",39/23
11,"hzG2D-12: humanized G2D clone; ""G2D VL region ... of clones 1-16, 19-21, 26-29, 31, and 33 ... grafted into the human germline sequence VKI-L1 with JK4"" (antibody, V domains shown, Synthetic sequence hzG2.3D VH T28S, R66K, V67A, A93T, R94S, V109L; Synthetic sequence hzG2D VLa) VH: QVQLVQSGAEVKKPGASVKVSCKASGYSFTGYYMHWVRQAPGQRLEWMGRINPNNGATNYNQNFKDKATITRDTSASTAYMELSSLRSEDTAVYYCTSVNFYYWGQGTTLTVSS VL: DIQMTQSPSSLSASVGDRVTITCKASQVINSYLSWFQQKPGKAPKSLIYRANTLVDGVPSRFSGSGSGTDFTLTISSLQPEDFATYYCLQYAEFPYTFGGGTKVEIK",158/113
